From the supplement of paper PMC7877785
± gives the uncertainty stated by the source.

Experiment: self-splicing fitness, log relative to wild type (ln ratio); higher = more splicing; Tetrahymena group I intron in knt gene, E. coli kanamycin selection, DiMSum; sequences stand for … in CUCUCU…GGAGGGAAAAGUUAUCAGGCAUGCACCUGGUAGCUAGUCUUUAAACCAAUAGAUUGCAUCGGUUUAAAAGGCAAGACCGUCAAAUUGCGGGAAAGGGGUCAACAGCCGUUCAGUACCAAGUCUCAGGGGAAACUUUGAGAUGGCCUUGCAAAGGGUAUGGUAAUAAGCUGACGGACAUGGUCCUAACCACGCAGCCAAGUCCUAAGUCAACAGAUCUUCUGUUGAUAUGGAUGCAGUUCACAGACUAAAUGUCGGUCGGGGAAGAUGUAUUCUUCUCAUAAGAUAUAGUCGGACCUCUCCUUAAUGGGAGCUAGCGGAUGAAGUGAUGCAACACUGGAGCCGCUGGGAACUAAUUUGUAUGCGAAAGUAUAUUGAUUAGUUUUGGAGUACUCGUGGUCG
Procedure, shortened: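 Pooled colonies went to amplicon sequencing on an Illumina HiSeq 2500 after six replicate transformations. The plates were LB agar with 100 μg/mL carbenicillin, 50 μM IPTG and 0.2% rhamnose, with or without 25 μg/mL kanamycin, incubated overnight at 37°C or 30°C. The E. coli BL21(DE3) library had all eight P1ex-region intron nucleotides randomised, the intron placed in the knt kanamycin-resistance gene on pET-22b(+). DiMSum fitness is the error-weighted combination of replicate fold changes, kanamycin against none, normalised to wild type.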

Sequence	self-splicing fitness (ln) (30 °C)	self-splicing fitness (ln) (37 °C)
GGGAAGCAAUAUUACGUACU	-2.15 ± 0.21	-2.2 ± 0.22
CAUAAGCAAUAUUACGCCGA		-1.71 ± 0.48
UCGGAGCAAUAUUACGUAGU		-0.551 ± 0.29
UCCAAGCAAUAUUACGGGCU	-3.43 ± 0.14	-1.95 ± 0.12
GACCAGCAAUAUUACGACGU	-0.417 ± 0.064	0.321 ± 0.078
AUCCAGCAAUAUUACGGGGG	-3.15 ± 0.16	-1.96 ± 0.15
AUGUAGCAAUAUUACGCGUU	-3.57 ± 0.18	-1.99 ± 0.17
AAGCAGCAAUAUUACGCACU	0.0285 ± 0.094	0.781 ± 0.12
GCAGAGCAAUAUUACGACUA	-2.45 ± 0.27	-2.12 ± 0.24
UGCGAGCAAUAUUACGACGU	-2.92 ± 0.25	-0.731 ± 0.17
UUUCAGCAAUAUUACGUUCG	-1.09 ± 0.085	-0.545 ± 0.13
AGACAGCAAUAUUACGAGUG	-4.11 ± 0.16	-1.9 ± 0.092
CUUUAGCAAUAUUACGUAGG	-1.05 ± 0.094	-0.65 ± 0.13
AUCAAGCAAUAUUACGGCCA	-0.51 ± 0.074	-0.264 ± 0.079
UAUAAGCAAUAUUACGGAGA	-3.11 ± 0.36	-2.33 ± 0.46
UUGAAGCAAUAUUACGCUCG	0.0719 ± 0.11	0.419 ± 0.14
UUCAAGCAAUAUUACGAGGU	-3.41 ± 0.29	-1.89 ± 0.23
UUUAAGCAAUAUUACGGGGA	-1.27 ± 0.1	-0.724 ± 0.11
GAGAAGCAAUAUUACGACUA	-0.502 ± 0.061	0.183 ± 0.082
AACUAGCAAUAUUACGAAUA	-2.71 ± 0.2	-1.6 ± 0.13
UGAAAGCAAUAUUACGGGCG	-0.0565 ± 0.085	0.348 ± 0.11

Sequence	self-splicing fitness (ln) (30 °C)	self-splicing fitness (ln) (37 °C)
UGUUAGCAAUAUUACGCGAA	-0.983 ± 0.12	-0.191 ± 0.1
AGCAAGCAAUAUUACGUUUU	-2.46 ± 0.077	-1.71 ± 0.09
GCUGAGCAAUAUUACGAAGA	-2.11 ± 0.21	-0.81 ± 0.17
UGGAAGCAAUAUUACGUCUA	-0.281 ± 0.15	-0.741 ± 0.18
CUUCAGCAAUAUUACGCACA	-2.37 ± 0.24	
AUCAAGCAAUAUUACGUCUA	-0.821 ± 0.073	-0.438 ± 0.076
GAUAAGCAAUAUUACGAAUA	-2.53 ± 0.22	-1.58 ± 0.3
ACUCAGCAAUAUUACGUUGU	-3.45 ± 0.11	-2.23 ± 0.13
GACCAGCAAUAUUACGAAAC	-1.43 ± 0.099	0.296 ± 0.11
GGAGAGCAAUAUUACGCCUA	-2.28 ± 0.32	-2.48 ± 0.34
GCCGAGCAAUAUUACGCAGU	-2.75 ± 0.33	-2.25 ± 0.23
GUUGAGCAAUAUUACGAUGG	-3.31 ± 0.47	-2.7 ± 0.29
AUUAAGCAAUAUUACGCGAG	-1.27 ± 0.1	-0.38 ± 0.097
UGAAAGCAAUAUUACGGGCC	-3.48 ± 0.23	-1.32 ± 0.22
CGUAAGCAAUAUUACGAGAG	-3.56 ± 0.22	-3.14 ± 0.28
UUUAAGCAAUAUUACGACGU	-1.73 ± 0.15	-0.17 ± 0.15
GGCUAGCAAUAUUACGAGUA	-1.59 ± 0.13	-0.404 ± 0.13
UUGUAGCAAUAUUACGGGUU	-4.7 ± 0.34	-2.83 ± 0.3
CAACAGCAAUAUUACGCGAC	-3.56 ± 0.12	-1.5 ± 0.12
GGUUAGCAAUAUUACGAUGG	-1.88 ± 0.23	-1.16 ± 0.24
CAAGAGCAAUAUUACGCAGG	-2.62 ± 0.13	-2 ± 0.17

Sequence	self-splicing fitness (ln) (30 °C)	self-splicing fitness (ln) (37 °C)
GAAGAGCAAUAUUACGCCAC	-3.28 ± 0.41	-2.48 ± 0.41
AAAAAGCAAUAUUACGCGGA	-1.95 ± 0.11	-0.504 ± 0.11
AAACAGCAAUAUUACGCUGG	-2.53 ± 0.12	-2.62 ± 0.2
CUCGAGCAAUAUUACGUGGA	-2.89 ± 0.27	-1.88 ± 0.16
UCUGAGCAAUAUUACGCAUG	-2.33 ± 0.18	-1.65 ± 0.17
GCUUAGCAAUAUUACGGGAC	-1.78 ± 0.18	-1.19 ± 0.2
ACGGAGCAAUAUUACGAGAG	-2.06 ± 0.34	-2.22 ± 0.45
UAGAAGCAAUAUUACGGAAC	-1.25 ± 0.34	
UGUGAGCAAUAUUACGUAAC	-3.16 ± 0.28	-2.25 ± 0.38
GCCUAGCAAUAUUACGUGUU	-0.926 ± 0.042	0.15 ± 0.055
AUAGAGCAAUAUUACGCACA	-0.178 ± 0.09	-0.032 ± 0.11
GAACAGCAAUAUUACGCAUC	-2.79 ± 0.095	-2.01 ± 0.12
CUGGAGCAAUAUUACGGCGC		-1.02 ± 0.41
AUAUAGCAAUAUUACGUGUG	-3.82 ± 0.27	-2.46 ± 0.18
GCACAGCAAUAUUACGGCUC	-0.268 ± 0.071	0.523 ± 0.076
UCAGAGCAAUAUUACGUCUC	-2.81 ± 0.34	
CCCCAGCAAUAUUACGCUAC	-2.29 ± 0.17	-2.05 ± 0.22
UAAAAGCAAUAUUACGGACA	-0.712 ± 0.082	0.302 ± 0.11
CGCCAGCAAUAUUACGACGG	-1.65 ± 0.11	-0.853 ± 0.12
GACAAGCAAUAUUACGGUAC	-2.81 ± 0.13	-2.64 ± 0.16
